Experimental data taken from US20130130988A1.
Where “and” joins values, the source holds several entries; their conditions need not be identical. Equal values may be shown once.

Experiments:
[1] = target: galectin-1; assay: microplate binding assay, complex adsorbed in wells, biotin-streptavidin visualisation; conditions: scale: µg of macromolecular complex per 10 ng of galectin-1
[2] = target: TLR-6; assay: as above

| Substance | concentration at saturation [1] | concentration at saturation (µg of macromolecule per 10 ng of TLR6) [2] |
| --- | --- | --- |
| macromolecular complex of Bifidobacterium longum CBi0703 (CNCM I-3994), prepared according to example 2 (fermentation with pH not regulated) | 10 and 20 | 10 and 20 |
| macromolecular complex of Bifidobacterium longum CBi0703 (CNCM I-3994), prepared according to example 1 (fermentation with pH regulated) | 20 and 10 | 10 and 20 |
